From patent US20040235118A1

Legend:
[1] = molecular target: Crotalus durissus terrificus venom; experiment: ELISA, C.d.t. venom-coated plate, dilution 1:25
[2] = molecular target: Crotalus durissus terrificus venom; experiment: ELISA, C.d.t. venom-coated plate (5 µg/ml), undiluted
[3] = molecular target: Crotalus durissus terrificus venom; experiment: ELISA, C.d.t. venom-coated plate (5 µg/ml), dilution 1:125
[4] = molecular target: Crotalus durissus terrificus venom; experiment: ELISA, C.d.t. venom-coated plate, dilution 1:125
[5] = molecular target: Crotalus durissus terrificus venom; experiment: ELISA, C.d.t. venom-coated plate, dilution 1:3125
[6] = molecular target: Crotalus durissus terrificus venom; experiment: ELISA, C.d.t. venom-coated plate, dilution 1:625
[7] = molecular target: Crotalus durissus terrificus venom; experiment: ELISA, C.d.t. venom-coated plate (5 µg/ml), dilution 1:625
[8] = molecular target: Crotalus durissus terrificus venom; experiment: ELISA, C.d.t. venom-coated plate, dilution 1:312,500
[9] = molecular target: Crotalus durissus terrificus venom; experiment: ELISA, C.d.t. venom-coated plate (5 µg/ml), dilution 1:3125
[10] = molecular target: Crotalus durissus terrificus venom; experiment: ELISA, C.d.t. venom-coated plate, dilution 1:12,500
[11] = molecular target: Crotalus durissus terrificus venom; experiment: ELISA, C.d.t. venom-coated plate, dilution 1:62,500
[12] = molecular target: Crotalus durissus terrificus venom; experiment: ELISA, C.d.t. venom-coated plate, dilution 1:2,500
[13] = molecular target: Crotalus durissus terrificus venom; experiment: ELISA, C.d.t. venom-coated plate, dilution 1:5
[14] = molecular target: Crotalus durissus terrificus venom; experiment: ELISA, C.d.t. venom-coated plate (5 µg/ml), dilution 1:5
[15] = molecular target: Crotalus durissus terrificus venom; experiment: ELISA, C.d.t. venom-coated plate (5 µg/ml), dilution 1:25
[16] = molecular target: Crotalus durissus terrificus venom; experiment: ELISA, C.d.t. venom-coated plate, dilution 1:500

For “preimmune IgY (PEG preparation from eggs of unimmunized hens or purchased eggs) (antibody)”, the absorbance (ELISA) [1] was 0.016 OD, the absorbance (ELISA) [2] was 0.003 OD and the absorbance (ELISA) [3] was 0.003 OD. It also gave an absorbance (ELISA) [4] of under 0 OD, an absorbance (ELISA) [5] of under 0 OD and an absorbance (ELISA) [6] of under 0 OD. It also gave an absorbance (ELISA) [7] of 0 OD, an absorbance (412 nm filter) [8] of 0.01 OD and an absorbance (ELISA) [9] of 0.002 OD. The absorbance (412 nm filter) [10] was 0.001 OD, the absorbance (412 nm filter) [11] was 0.001 OD and the absorbance (412 nm filter) [12] was 0.004 OD. It also gave an absorbance (ELISA) [13] of under 0 OD, an absorbance (ELISA) [14] of under 0 OD and an absorbance (ELISA) [15] of 0 OD. For the same substance, the absorbance (412 nm filter) [16] was 0.005 OD.
